Test results as given in the supplement of paper PMC11246515.
± gives the standard deviation of the averaged measurements.

Test: total protein half-life in vivo (active degradation + dilution); higher = more stable protein
[1] = E. coli NCM3722 delta-clpP, growth: N-lim chemostat, doubling time 6 h
[2] = E. coli NCM3722 delta-hslV, growth: N-lim chemostat, doubling time 6 h
[3] = E. coli NCM3722 delta-lon, growth: N-lim chemostat, doubling time 6 h
[4] = E. coli NCM3722 delta-smpB, growth: N-lim chemostat, doubling time 6 h
[5] = wild type E. coli NCM3722, growth: C-lim chemostat, doubling time 3 h
[6] = wild type E. coli NCM3722, growth: C-lim chemostat, doubling time 12 h
[7] = wild type E. coli NCM3722, growth: N-lim chemostat, doubling time 6 h
[8] = wild type E. coli NCM3722, growth: N-lim chemostat, doubling time 12 h
[9] = wild type E. coli NCM3722, growth: P-lim chemostat, doubling time 6 h
[10] = wild type E. coli NCM3722, growth: P-lim chemostat, doubling time 12 h
[11] = E. coli NCM3722 delta-clpP delta-lon delta-hslV, growth: N-lim chemostat, doubling time 6 h
[12] = wild type E. coli NCM3722, growth: C-lim chemostat, doubling time 6 h

| Sequence | total protein half-life in vivo [1] | total protein half-life in vivo [2] | total protein half-life in vivo [3] | total protein half-life in vivo [4] | total protein half-life in vivo [5] | total protein half-life in vivo [6] | total protein half-life in vivo [7] | total protein half-life in vivo [8] | total protein half-life in vivo [9] | total protein half-life in vivo [10] | total protein half-life in vivo [11] | total protein half-life in vivo [12] |
| --- | --- | --- | --- | --- | --- | --- | --- | --- | --- | --- | --- | --- |
| MRTQWPSPAKLNLFLYITGQRADGYHTLQTLFQFLDYGDTISIELRDDGDIRLLTPVEGVEHEDNLIVRAARLLMKTAADSGRLPTGSGANISIDKRLPMGGGLGGGSSNAATVLVALNHLWQCGLSMDELAEMGLTLGADVPVFVRGHAAFAEGVGEILTPVDPPEKWYLVAHPGVSIPTPVIFKDPELPRNTPKRSIETLLKCEFSNDCEVIARKRFREVDAVLSWLLEYAPSRLTGTGACVFAEFDTESEARQVLEQAPEWLNGFVAKGANLSPLHRAML | 4.11 ± 0.64 h | 4.05 ± 0.64 h | 4.25 ± 0.41 h | 4.04 ± 0.42 h | 2.95 ± 0.33 h | 10.5 ± 0.63 h | 4.43 ± 0.23 h | 6.789 ± 0.062 h | 5.31 ± 0.33 h | 10.47 ± 0.049 h | – | – |
| MRTTIAVVLGAISLTSAFVFADKPDVARSANDEVSTLFFGHDDRVPVNDTTQSPWDAVGQLETASGNLCTATLIAPNLALTAGHCLLTPPKGKADKAVALRFVSNKGLWRYEIHDIEGRVDPTLGKRLKADGDGWIVPPAAAPWDFGLIVLRNPPSGITPLPLFEGDKAALTAALKAAGRKVTQAGYPEDHLDTLYSHQNCEVTGWAQTSVMSHQCDTLPGDSGSPLMLHTDDGWQLIGVQSSAPAAKDRWRADNRAISVTGFRDKLDQLSQK | 5.58 ± 0.3 h | 6.26 ± 0.068 h | 5.8 ± 0.71 h | 4.76 ± 0.16 h | 2.07 ± 0.13 h | 9.64 ± 2.3 h | 5.29 ± 0.23 h | 10.9 ± 0.45 h | 6.23 ± 0.28 h | 11.4 ± 1.1 h | 5.08 ± 0.47 h | 4.406 ± 0.0069 h |
| MRTTSFAKVAALCGLLALSGCASKITQPDKYSGFLNNYSDLKETTSATGKPVLRWVDPSFDQSKYDSIVWNPITYYPVPKPSTQVGQKVLDKILNYTNTEMKEAIAQRKPLVTTAGPRSLIFRGAITGVDTSKEGLQFYEVVPVALVVAGTQMATGHRTMDTRLYFEGELIDAATNKPVIKVVRQGEGKDLNNESTPMAFENIKQVIDDMATDATMFDVNKK | – | 6.47 ± 0.16 h | – | 5.98 ± 0.26 h | 3.33 ± 0.073 h | 10.3 ± 0.9 h | 6.07 ± 0.31 h | 12.8 ± 0.57 h | 5.82 ± 0.2 h | 13 ± 0.29 h | 5.89 ± 0.069 h | 6.02 ± 0.91 h |
| MRTVKVFEEAWPLHTPFVIARGSRSEARVVVVELEEEGIKGTGECTPYPRYGESDASVMAQIMSVVPQLEKGLTREELQKILPAGAARNALDCALWDLAARRQQQSLADLIGITLPETVITAQTVVIGTPDQMANSASTLWQAGAKLLKVKLDNHLISERMVAIRTAVPDATLIVDANESWRAEGLAARCQLLADLGVAMLEQPLPAQDDAALENFIHPLPICADESCHTRSNLKALKGRYEMVNIKLDKTGGLTEALALATEARAQGFSLMLGCMLCTSRAISAALPLVPQVSFADLDGPTWLAVDVEPALQFTTGELHL | – | – | 5.93 ± 1.4 h | 4.33 ± 0.052 h | 2.73 ± 0.18 h | 9.313 ± 0.054 h | 4.81 ± 0.22 h | 11.2 ± 2.8 h | 5.54 ± 0.5 h | 12.119 ± 0.011 h | – | 6.31 ± 1.1 h |
| MRTVLNILNFVLGGFATTLGWLLATLVSIVLIFTLPLTRSCWEITKLSLVPYGNEAIHVDELNPAGKNVLLNTGGTVLNIFWLIFFGWWLCLMHIATGIAQCISIIGIPVGIANFKIAAIALWPVGRRVVSVETAQAAREANARRRFE [P0AB12] | 6.3 ± 0.72 h | 5.92 ± 0.069 h | 5.93 ± 0.27 h | 6.1 ± 0.31 h | 2.89 ± 0.29 h | 12.5 ± 1 h | 6.72 ± 1.3 h | 12.3 ± 3.2 h | 5.98 ± 0.26 h | 12 ± 0.12 h | 6.35 ± 0.66 h | 6.33 ± 0.089 h |
| MRVDAIAKVTGRARYTDDYVMAGMCYAKYVRSPIAHGYAVSINDEQARSLPGVLAIFTWEDVPDIPFATAGHAWTLDENKRDTADRALLTRHVRHHGDAVAIVVARDELTAEKAAQLVSIEWQELPVITTPEAALAEDAAPIHNGGNLLKQSTMSTGNVQQTIDAADYQVQGHYQTPVIQHCHMESVTSLAWMEDDSRITIVSSTQIPHIVRRVVGQALDIPWSCVRVIKPFVGGGFGNKQDVLEEPMAAFLTSKLGGIPVKVSLSREECFLATRTRHAFTIDGQMGVNRDGTLKGYSLDVLSNTGAYASHGHSIASAGGNKVAYLYPRCAYAYSSKTCYTNLPSAGAMRGYGAPQVVFAVESMLDDAATALGIDPVEIRLRNAAREGDANPLTGKRIYSAGLPECLEKGRKIFEWEKRRAECQNQQGNLRRGVGVACFSYTSNTWPVGVEIAGARLLMNQDGTINVQSGATEIGQGADTVFSQMVAETVGVPVSDVRVISTQDTDVTPFDPGAFASRQSYVAAPALRSAALLLKEKIIAHAAVMLHQSAMNLTLIKGHIVLVERPEEPLMSLKDLAMDAFYHPERGGQLSAESSIKTTTNPPAFGCTFVDLTVDIALCKVTINRILNVHDSGHILNPLLAEGQVHGGMGMGIGWALFEEMIIDAKSGVVRNPNLLDYKMPTMPDLPQLESAFVEINEPQSAYGHKSLGEPPIIPVAAAIRNAVKMATGVAINTLPLTPKRLYEEFHLAGLI | – | – | – | – | 1.88 ± 0.088 h | 3.56 ± 1.4 h | – | – | – | – | 5 h | 2.81 ± 0.68 h |
